The record followed here is patent US20150368311A1 (Sanofi, published 2015).

Non-standard residues stand in square brackets, D forms with d. No end group written: not given here. Ala(4-thiazolyl) = N[C@@H](Cc1cscn1)C(=O)O; 1Nal = N[C@@H](Cc1cccc2ccccc12)C(=O)O; Phg = N[C@H](C(=O)O)c1ccccc1; Nle = CCCC[C@H](N)C(=O)O

B1: SEQ ID NO: 11 (peptide)
peptide: [Ala(4-thiazolyl)]SQGTFTSD[1Nal]SKQLESRRAQEFIEWLLATGPESGAPPPS-OH
modifications: N-terminus assumed
SMILES: CC[C@H](C)[C@H](NC(=O)[C@H](Cc1ccccc1)NC(=O)[C@H](CCC(=O)O)NC(=O)[C@H](CCC(N)=O)NC(=O)[C@H](C)NC(=O)[C@H](CCCNC(=N)N)NC(=O)[C@H](CCCNC(=N)N)NC(=O)[C@H](CO)NC(=O)[C@H](CCC(=O)O)NC(=O)[C@H](CC(C)C)NC(=O)[C@H](CCC(N)=O)NC(=O)[C@H](CCCCN)NC(=O)[C@H](CO)NC(=O)[C@H](Cc1cccc2ccccc12)NC(=O)[C@H](CC(=O)O)NC(=O)[C@H](CO)NC(=O)[C@@H](NC(=O)[C@H](Cc1ccccc1)NC(=O)[C@@H](NC(=O)CNC(=O)[C@H](CCC(N)=O)NC(=O)[C@H](CO)NC(=O)[C@@H](N)Cc1cscn1)[C@@H](C)O)[C@@H](C)O)C(=O)N[C@@H](CCC(=O)O)C(=O)N[C@@H](Cc1c[nH]c2ccccc12)C(=O)N[C@@H](CC(C)C)C(=O)N[C@@H](CC(C)C)C(=O)N[C@@H](C)C(=O)N[C@H](C(=O)NCC(=O)N1CCC[C@H]1C(=O)N[C@@H](CCC(=O)O)C(=O)N[C@@H](CO)C(=O)NCC(=O)N[C@@H](C)C(=O)N1CCC[C@H]1C(=O)N1CCC[C@H]1C(=O)N1CCC[C@H]1C(=O)N[C@@H](CO)C(=O)O)[C@@H](C)O
B2: SEQ ID NO: 10 (peptide)
peptide: [Ala(4-thiazolyl)]SQGTFTSD[Phg]SKQLESRRAQEFIEWLLATGPESGAPPPS-OH
modifications: N-terminus assumed
SMILES: CC[C@H](C)[C@H](NC(=O)[C@H](Cc1ccccc1)NC(=O)[C@H](CCC(=O)O)NC(=O)[C@H](CCC(N)=O)NC(=O)[C@H](C)NC(=O)[C@H](CCCNC(=N)N)NC(=O)[C@H](CCCNC(=N)N)NC(=O)[C@H](CO)NC(=O)[C@H](CCC(=O)O)NC(=O)[C@H](CC(C)C)NC(=O)[C@H](CCC(N)=O)NC(=O)[C@H](CCCCN)NC(=O)[C@H](CO)NC(=O)[C@@H](NC(=O)[C@H](CC(=O)O)NC(=O)[C@H](CO)NC(=O)[C@@H](NC(=O)[C@H](Cc1ccccc1)NC(=O)[C@@H](NC(=O)CNC(=O)[C@H](CCC(N)=O)NC(=O)[C@H](CO)NC(=O)[C@@H](N)Cc1cscn1)[C@@H](C)O)[C@@H](C)O)c1ccccc1)C(=O)N[C@@H](CCC(=O)O)C(=O)N[C@@H](Cc1c[nH]c2ccccc12)C(=O)N[C@@H](CC(C)C)C(=O)N[C@@H](CC(C)C)C(=O)N[C@@H](C)C(=O)N[C@H](C(=O)NCC(=O)N1CCC[C@H]1C(=O)N[C@@H](CCC(=O)O)C(=O)N[C@@H](CO)C(=O)NCC(=O)N[C@@H](C)C(=O)N1CCC[C@H]1C(=O)N1CCC[C@H]1C(=O)N1CCC[C@H]1C(=O)N[C@@H](CO)C(=O)O)[C@@H](C)O
B3: SEQ ID NO: 15 (peptide)
peptide: [Ala(4-thiazolyl)]SQGTFTSDLSKQLESRRAQDFIEWLLATGPESGAPPPS-OH
modifications: N-terminus assumed
SMILES: CC[C@H](C)[C@H](NC(=O)[C@H](Cc1ccccc1)NC(=O)[C@H](CC(=O)O)NC(=O)[C@H](CCC(N)=O)NC(=O)[C@H](C)NC(=O)[C@H](CCCNC(=N)N)NC(=O)[C@H](CCCNC(=N)N)NC(=O)[C@H](CO)NC(=O)[C@H](CCC(=O)O)NC(=O)[C@H](CC(C)C)NC(=O)[C@H](CCC(N)=O)NC(=O)[C@H](CCCCN)NC(=O)[C@H](CO)NC(=O)[C@H](CC(C)C)NC(=O)[C@H](CC(=O)O)NC(=O)[C@H](CO)NC(=O)[C@@H](NC(=O)[C@H](Cc1ccccc1)NC(=O)[C@@H](NC(=O)CNC(=O)[C@H](CCC(N)=O)NC(=O)[C@H](CO)NC(=O)[C@@H](N)Cc1cscn1)[C@@H](C)O)[C@@H](C)O)C(=O)N[C@@H](CCC(=O)O)C(=O)N[C@@H](Cc1c[nH]c2ccccc12)C(=O)N[C@@H](CC(C)C)C(=O)N[C@@H](CC(C)C)C(=O)N[C@@H](C)C(=O)N[C@H](C(=O)NCC(=O)N1CCC[C@H]1C(=O)N[C@@H](CCC(=O)O)C(=O)N[C@@H](CO)C(=O)NCC(=O)N[C@@H](C)C(=O)N1CCC[C@H]1C(=O)N1CCC[C@H]1C(=O)N1CCC[C@H]1C(=O)N[C@@H](CO)C(=O)O)[C@@H](C)O
B4: SEQ ID NO: 16 (peptide)
peptide: [Ala(4-thiazolyl)]SQGTFTSDLSKQ[Nle]ESRRAQEFIEWLLATGPESGAPPPS-OH
modifications: N-terminus assumed
SMILES: CCCC[C@H](NC(=O)[C@H](CCC(N)=O)NC(=O)[C@H](CCCCN)NC(=O)[C@H](CO)NC(=O)[C@H](CC(C)C)NC(=O)[C@H](CC(=O)O)NC(=O)[C@H](CO)NC(=O)[C@@H](NC(=O)[C@H](Cc1ccccc1)NC(=O)[C@@H](NC(=O)CNC(=O)[C@H](CCC(N)=O)NC(=O)[C@H](CO)NC(=O)[C@@H](N)Cc1cscn1)[C@@H](C)O)[C@@H](C)O)C(=O)N[C@@H](CCC(=O)O)C(=O)N[C@@H](CO)C(=O)N[C@@H](CCCNC(=N)N)C(=O)N[C@@H](CCCNC(=N)N)C(=O)N[C@@H](C)C(=O)N[C@@H](CCC(N)=O)C(=O)N[C@@H](CCC(=O)O)C(=O)N[C@@H](Cc1ccccc1)C(=O)N[C@H](C(=O)N[C@@H](CCC(=O)O)C(=O)N[C@@H](Cc1c[nH]c2ccccc12)C(=O)N[C@@H](CC(C)C)C(=O)N[C@@H](CC(C)C)C(=O)N[C@@H](C)C(=O)N[C@H](C(=O)NCC(=O)N1CCC[C@H]1C(=O)N[C@@H](CCC(=O)O)C(=O)N[C@@H](CO)C(=O)NCC(=O)N[C@@H](C)C(=O)N1CCC[C@H]1C(=O)N1CCC[C@H]1C(=O)N1CCC[C@H]1C(=O)N[C@@H](CO)C(=O)O)[C@@H](C)O)[C@@H](C)CC
B5: SEQ ID NO: 12 (peptide)
peptide: [Ala(4-thiazolyl)]SQGTFTSDLSKQLESRRAQEFIEWLLATGPESGAPPPS-OH
modifications: N-terminus assumed
SMILES: CC[C@H](C)[C@H](NC(=O)[C@H](Cc1ccccc1)NC(=O)[C@H](CCC(=O)O)NC(=O)[C@H](CCC(N)=O)NC(=O)[C@H](C)NC(=O)[C@H](CCCNC(=N)N)NC(=O)[C@H](CCCNC(=N)N)NC(=O)[C@H](CO)NC(=O)[C@H](CCC(=O)O)NC(=O)[C@H](CC(C)C)NC(=O)[C@H](CCC(N)=O)NC(=O)[C@H](CCCCN)NC(=O)[C@H](CO)NC(=O)[C@H](CC(C)C)NC(=O)[C@H](CC(=O)O)NC(=O)[C@H](CO)NC(=O)[C@@H](NC(=O)[C@H](Cc1ccccc1)NC(=O)[C@@H](NC(=O)CNC(=O)[C@H](CCC(N)=O)NC(=O)[C@H](CO)NC(=O)[C@@H](N)Cc1cscn1)[C@@H](C)O)[C@@H](C)O)C(=O)N[C@@H](CCC(=O)O)C(=O)N[C@@H](Cc1c[nH]c2ccccc12)C(=O)N[C@@H](CC(C)C)C(=O)N[C@@H](CC(C)C)C(=O)N[C@@H](C)C(=O)N[C@H](C(=O)NCC(=O)N1CCC[C@H]1C(=O)N[C@@H](CCC(=O)O)C(=O)N[C@@H](CO)C(=O)NCC(=O)N[C@@H](C)C(=O)N1CCC[C@H]1C(=O)N1CCC[C@H]1C(=O)N1CCC[C@H]1C(=O)N[C@@H](CO)C(=O)O)[C@@H](C)O
B6: SEQ ID NO: 3 (peptide)
peptide: [Ala(4-thiazolyl)]SQGTFTSDLSKQ[Nle]ESRRAQDFIEWLLATGPESGAPPPS-OH
modifications: N-terminus assumed
SMILES: CCCC[C@H](NC(=O)[C@H](CCC(N)=O)NC(=O)[C@H](CCCCN)NC(=O)[C@H](CO)NC(=O)[C@H](CC(C)C)NC(=O)[C@H](CC(=O)O)NC(=O)[C@H](CO)NC(=O)[C@@H](NC(=O)[C@H](Cc1ccccc1)NC(=O)[C@@H](NC(=O)CNC(=O)[C@H](CCC(N)=O)NC(=O)[C@H](CO)NC(=O)[C@@H](N)Cc1cscn1)[C@@H](C)O)[C@@H](C)O)C(=O)N[C@@H](CCC(=O)O)C(=O)N[C@@H](CO)C(=O)N[C@@H](CCCNC(=N)N)C(=O)N[C@@H](CCCNC(=N)N)C(=O)N[C@@H](C)C(=O)N[C@@H](CCC(N)=O)C(=O)N[C@@H](CC(=O)O)C(=O)N[C@@H](Cc1ccccc1)C(=O)N[C@H](C(=O)N[C@@H](CCC(=O)O)C(=O)N[C@@H](Cc1c[nH]c2ccccc12)C(=O)N[C@@H](CC(C)C)C(=O)N[C@@H](CC(C)C)C(=O)N[C@@H](C)C(=O)N[C@H](C(=O)NCC(=O)N1CCC[C@H]1C(=O)N[C@@H](CCC(=O)O)C(=O)N[C@@H](CO)C(=O)NCC(=O)N[C@@H](C)C(=O)N1CCC[C@H]1C(=O)N1CCC[C@H]1C(=O)N1CCC[C@H]1C(=O)N[C@@H](CO)C(=O)O)[C@@H](C)O)[C@@H](C)CC

T2 sequence (P47871 26-477): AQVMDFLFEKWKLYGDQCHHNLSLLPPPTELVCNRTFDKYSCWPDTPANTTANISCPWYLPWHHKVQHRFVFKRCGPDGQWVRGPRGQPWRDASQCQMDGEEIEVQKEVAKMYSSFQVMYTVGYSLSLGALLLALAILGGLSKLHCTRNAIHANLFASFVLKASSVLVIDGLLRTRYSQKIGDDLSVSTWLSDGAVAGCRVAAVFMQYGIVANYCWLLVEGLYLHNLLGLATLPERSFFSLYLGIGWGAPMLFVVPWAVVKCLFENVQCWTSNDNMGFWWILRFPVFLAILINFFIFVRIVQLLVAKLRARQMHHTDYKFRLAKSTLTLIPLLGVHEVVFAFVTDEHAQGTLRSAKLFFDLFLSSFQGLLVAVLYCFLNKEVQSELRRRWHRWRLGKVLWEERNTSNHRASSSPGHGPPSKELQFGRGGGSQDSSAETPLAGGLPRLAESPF

In one test the target is T1, human GLP-1 receptor (human, UniProt P43220 24-463). As to the kind of experiment: cell-based or functional assay.
Consider B1, for which the “EC50 hGLP-1R, cAMP formation” value was 11.7 nM.

For B2, the “EC50 hGLP-1R, cAMP formation” value is 45 nM.

Take B3: the “EC50 hGLP-1R, cAMP formation” value came out at 34.5 nM.

In the case of B4, the “EC50 hGLP-1R, cAMP formation” value turned out to be 19.7 nM.

For the molecule B5, the “EC50 hGLP-1R, cAMP formation” value stood at 20 nM.

Regarding B6, the “EC50 hGLP-1R, cAMP formation” value was determined as 44.3 nM.

The next test has as its target T2, human glucagon receptor (human, UniProt P47871 26-477). As to the kind of experiment: cell-based or functional assay.
Consider B1, for which the “EC50 hGlucagon-R, cAMP formation” value stood at 0.0009 nM.

As for B2, the “EC50 hGlucagon-R, cAMP formation” value is 0.006 nM.

Turning to B3, the “EC50 hGlucagon-R, cAMP formation” value came to 0.0022 nM.

On to B4, for which the “EC50 hGlucagon-R, cAMP formation” value came to 0.0009 nM.

For B5, the “EC50 hGlucagon-R, cAMP formation” value came to 0.001 nM.

In the case of B6, the “EC50 hGlucagon-R, cAMP formation” value was 0.0018 nM.

In another test the target is T1, human GLP-1 receptor. As to the kind of experiment: cell-based or functional assay. This is another data set of the same source.
In the case of B1, the “EC50 hGLP-1 R [pM], cAMP formation” value came out at 11700 pM.

Consider B2, for which the “EC50 hGLP-1 R [pM], cAMP formation” value was 45000 pM.

With B3, the “EC50 hGLP-1 R [pM], cAMP formation” value was 34500 pM.

In the case of B4, the “EC50 hGLP-1 R [pM], cAMP formation” value came to 19700 pM.

Take B5: the “EC50 hGLP-1 R [pM], cAMP formation” value amounted to 20000 pM.

Turning to B6, the “EC50 hGLP-1 R [pM], cAMP formation” value came out at 44300 pM.

A further test deals with T2, human glucagon receptor. As to the kind of experiment: cell-based or functional assay. The source holds these as a separate data set.
As to B1, the “EC50 hGLUC R [pM], cAMP formation” value was determined as 0.9 pM.

For B2, the “EC50 hGLUC R [pM], cAMP formation” value stood at 6 pM.

Take B3: the “EC50 hGLUC R [pM], cAMP formation” value came out at 2.2 pM.

For B4, the “EC50 hGLUC R [pM], cAMP formation” value turned out to be 0.9 pM.

Consider B5, for which the “EC50 hGLUC R [pM], cAMP formation” value was 1 pM.

Turning to B6, the “EC50 hGLUC R [pM], cAMP formation” value was determined as 1.8 pM.
